Measurements: article PMC8102337
No end group written: not given here.

Tests used:
[1] = biological target: N-terminally biotinylated HSP27 IXI peptide 178…186 (F185H), unmodified (human); test: SPR
[2] = biological target: HSP27 alpha crystallin domain (ACD) (human); test: ITC

Molecule | Kd [1] [µM] | Kd [2] [µM]
HSP27 alpha crystallin domain (ACD) (domain or fragment) | 3.14 | 
EITIPVTHE (not fully specified) [HSP27 IXI peptide 178…186 (F185H), unmodified, without biotin] |  | 14.3
